The values that follow come from article PMC5053343, “Improvement of free fatty acid production using a mutant acyl-CoA thioesterase I with high specific activity in Escherichia coli” (Biotechnology for Biofuels, 2016).

Substrate in the data set: CCCCCCCCCCCCCCCC(=O)SCCNC(=O)CCNC(=O)[C@H](O)C(C)(C)COP(=O)(O)OP(=O)(O)OC[C@H]1O[C@@H](n2cnc3c(N)ncnc32)[C@H](O)[C@@H]1OP(=O)(O)O
The data set is described as follows: purified protein. Format: biochemical, Escherichia coli. The following applies: 50 mM potassium phosphate pH 7.0, 80 ug/mL BSA, 0.1 mM DTNB, 3.1 x 10^-5 mM enzyme, 0-24 uM palmitoyl-CoA.

Changes are numbered by the printed parent chain. Names may count otherwise.

B1: 'TesA (leader sequence-deleted acyl-CoA thioesterase I) (Escherichia coli K-12) (protein)
chain: ADTLLILGDSLSAGYRMSASAAWPALLNDKWQSKTSVVNASISGDTSQQGLARLPALLKQHQPRWVLVELGGNDGLRGFQPQQTEQTLRQILQDVKAANAEPLLMQIRLPANYGRRYNEAFSAIYPKLAKEFDVPLLPFFMEEVYLKPQWMQDDGIHPNRDAQPFIADWMAKQLQPLVNHDS
notes: signal peptide removed (leaderless), C-terminal (His)6 tag from pET28a (NcoI/XhoI), kept; expressed in E. coli BL21(DE3), Ni-NTA purified
For the protein B1, the Km – broadly, the concentration of substrate that gives half-maximal velocity – was determined as 6.69 µM and the kcat (in general, the maximal rate divided by the concentration of active sites) came out at 20.75 s⁻¹.

B2: 'TesA (leader sequence-deleted acyl-CoA thioesterase I) (Escherichia coli K-12; R90C) (protein)
chain: B1 chain with R64C
notes: as for B1
For B2, the Km is reported as 4.00 µM and the kcat was found to be 27.12 s⁻¹.
